{"source": "the domain aggregation screens of Martell et al. (2025)", "experiment": "soluble fraction after stress (log2 fold change); higher = more stays soluble; pooled small domains, quantitative proteomics", "conditions": "stress: 75 degC"}
{"sequence": "HMHPEPDPVLFIDGKEYPYDKLSELDETRVQSMTILPKKSAVKKYGDKYANRSIMEITLKKEN", "values": [{"measurement": "soluble fraction (log2)", "result": 0.119}]}
{"sequence": "HMHPNPLTEQEIAVLKGIAQGLSNQEIADQLYLSNGTVRNYVTNILSKLDAGNRTEAANIAKESGW", "values": [{"measurement": "soluble fraction (log2)", "result": 0.00139}]}
{"sequence": "HMHPSNQELTKVLAQGSELVLAQKYIEASQIFTRVIEIDQTWAEAWNKRATVFYLLQNYEASQKDIDEV", "values": [{"measurement": "soluble fraction (log2)", "result": 0.0525}]}
{"sequence": "HMHQKELLNLSYKEAKRYILDDFERVFFTNLLRKTGGNVSRAAQLAQVHRKNLYVKLTELGIDPRQFG", "values": [{"measurement": "soluble fraction (log2)", "result": -1.53}]}
{"sequence": "HMHQLQLDSRSRLHMTGVIEVESFDEATIVLTTTRGTLIVRGENLHLQLLRLDGGEVLVDGTVDSLSYE", "values": [{"measurement": "soluble fraction (log2)", "result": -2.67}]}
{"sequence": "HMHQPPDLDDFEAFVGRVKPALLQALVATYGPVDGREATVDALSWAWEHWDRLADVDHPVGYLYRV", "values": [{"measurement": "soluble fraction (log2)", "result": -0.0172}]}
{"sequence": "HMHRFAVLDTVREVAAGGVAATLSIGVGRDADSFDALFKNASMALEMALSRGGDQAVVKDRMNFQFYGG", "values": [{"measurement": "soluble fraction (log2)", "result": 0.153}]}
{"sequence": "HMHRGEIVDGVIASVNPRSILIDIGGKSDALVHPRELERMSDEDLRSLKPGQDVSVYVIETDSDGTMLVSL", "values": [{"measurement": "soluble fraction (log2)", "result": 0.0809}]}
{"sequence": "HMHSEISGGSKDPFRFMPHLGVEDIHAETDRLSGSGVEFIREPDQESWGGWVATFKDPDGNILQLLQL", "values": [{"measurement": "soluble fraction (log2)", "result": 0.197}]}
{"sequence": "HMHSQVFTDPDKAKNAVVKLGAPLVVKADGLALGKGVIIAQNPQAAKEAVASVGSSGISSISVT", "values": [{"measurement": "soluble fraction (log2)", "result": 0.126}]}
{"sequence": "HMHTDDDGITEAFPHLRLLSLGEDILDLLEKSRFIRKLNNELVYYVVDFREQNSIDGRRYHPSIYHNL", "values": [{"measurement": "soluble fraction (log2)", "result": -0.437}]}
{"sequence": "HMHTGEVVNGKVIDVKEDQIILNVGFKSDGIITRSEYSNDNSLDLRTVVNVGDDMEAKVLKINDGEGQVLL", "values": [{"measurement": "soluble fraction (log2)", "result": -0.242}]}
{"sequence": "HMHTGLAELTDRERDVLRLIATGMTNAAIGSALAYSPSTIRADTVSIYRKLEVRGRAEAAAVAVAAGLTQP", "values": [{"measurement": "soluble fraction (log2)", "result": -1.72}]}
{"sequence": "HMHTPSGALLSAIEKEWGSFDNFKKEFTTAATSLFGSGWVWLAKDKKGKLYILSENNAGNPITKGYTPILG", "values": [{"measurement": "soluble fraction (log2)", "result": -0.359}]}
{"sequence": "HMHVLNEEYYNRIKAIQFTMNHDDGNSLNDIEKSDIILLGVSRTSKTPTSIYLANRGLRTSNIPLINEK", "values": [{"measurement": "soluble fraction (log2)", "result": -0.655}]}
{"sequence": "HMHVSLADQAYKTIRTNILNLTYPPGTQLTEAKLASDLNMSRSPVRTAIKMLQADGLLVSDYYKSMTVK", "values": [{"measurement": "soluble fraction (log2)", "result": -1.21}]}
{"sequence": "HMHVYSYPAAVKIKNAVGREMMVTLLGRSGTHVQFARQDGEEFVYPISSLDLAAQTLISKYPNDGIKN", "values": [{"measurement": "soluble fraction (log2)", "result": -0.895}]}
{"sequence": "HMIAALEGKQAMVLDQVSLHHGQVKLGGEVWTARPLNDQDVYEPGDRVTVMRIDGATAVVWRN", "values": [{"measurement": "soluble fraction (log2)", "result": -0.472}]}
{"sequence": "HMIAASPVGGIDRVLELLDARGQRVAWIEASGTEGGQRLRLGWIDAQGAERHGAWVPWSADDLLLYA", "values": [{"measurement": "soluble fraction (log2)", "result": -0.739}]}
{"sequence": "HMIAASQVLRDARQRSRLTQAELGRRADVPQSVISAYESARREPSVDMLARLVAAAGFDLRIGLTP", "values": [{"measurement": "soluble fraction (log2)", "result": -0.755}]}
{"sequence": "HMIADPLVINKLMDSMALAINDYNPDSVEPVLDELRQYFSENQLRELSKAMDDFDFDEALNALTLLRT", "values": [{"measurement": "soluble fraction (log2)", "result": -0.185}]}
{"sequence": "HMIALKNLREEKRMTQAELSKDLEISPSAIGMYEQGRRVPDVSTLKKISAYFNVSIDYLLGNSTSKDI", "values": [{"measurement": "soluble fraction (log2)", "result": -0.626}]}
{"sequence": "HMIALLRLGTAPDIKAQAPLATILARHNGEMSAKDLWQRFGGEIDTFYAQLKTEVAHGWILEPT", "values": [{"measurement": "soluble fraction (log2)", "result": -2.34}]}
{"sequence": "HMIAVLKQGVSKQQVENLITWFRSRGLDVHISEGKFQTIIGLIGDTSKVDIDLLNGLEIIESVKRI", "values": [{"measurement": "soluble fraction (log2)", "result": -0.344}]}
{"sequence": "HMIAVSQEQIKQIIVDDPSFHDANGKFSQALLTQYLNQRRMSEDQFVEEIRDQFLFQNLQNLVQNG", "values": [{"measurement": "soluble fraction (log2)", "result": 0.278}]}
{"sequence": "HMIDAAHLEKAILSLPEGARAVFVLIETEGFAHREVAELLGISEGTSKSQLNYAKKRLREILV", "values": [{"measurement": "soluble fraction (log2)", "result": -0.266}]}
{"sequence": "HMIDAKTTLQELTQKSGKKPEYRLIKIEGPDHLRRFTVEVFIDGQSMGTGTGHSKKEAEQNAANFALKNLQ", "values": [{"measurement": "soluble fraction (log2)", "result": -0.00455}]}
{"sequence": "HMIDEQDLKKYILISTSVEELTDYLGATDRMLYDYLYSLKHVGQYWQLNERFLLDLYKLPNLVIVDKEDLE", "values": [{"measurement": "soluble fraction (log2)", "result": -0.172}]}
{"sequence": "HMIDFDEQGNLWVHEMGPRHGDELNLIEKARNYGYPTVSQGDHYSGVKISNHEDIPIFKSPEKAWVPAISP", "values": [{"measurement": "soluble fraction (log2)", "result": -0.228}]}
{"sequence": "HMIDFDHADIERLWNSIIHYVPERQKLDFAIDFIKSLEDIGVEHDVLRGSAELDPKLEEAVNTVFE", "values": [{"measurement": "soluble fraction (log2)", "result": -0.725}]}
{"sequence": "HMIDIIEYIISEESKGLRADQGIALQNPQYSRSLIQKWIKKGSVLVNNKIIRTKEILLEGDKISITPEENI", "values": [{"measurement": "soluble fraction (log2)", "result": -0.546}]}
{"sequence": "HMIDKIRYPELIMKLAHQQGGTIKRRDVEQLLHLQTKQAYRELSKLVDAGELVSVGRGPGAHYEVS", "values": [{"measurement": "soluble fraction (log2)", "result": -0.316}]}
{"sequence": "HMIDQNEDLLSGYIDEVLSQNPDKVNEYLKGKSGLIGFFMGQIKQKSATALDAALLKSQLETALEKLRIK", "values": [{"measurement": "soluble fraction (log2)", "result": -0.14}]}
{"sequence": "HMIDQSVVVQYLSKLTNTPYLKTREITMGEPYMQFERGEIKFQEYVEDIRALLPGGDRIDADRLRDIWMNS", "values": [{"measurement": "soluble fraction (log2)", "result": -1.1}]}
{"sequence": "HMIDRADLWEALRKLPEDTLKLFSLHFEKGMTHDEISKHTDIPVGTVKTKLRRGLIEARKLAREF", "values": [{"measurement": "soluble fraction (log2)", "result": -1.28}]}
{"sequence": "HMIDTPQELARLLRLLDEQNFEAEILFHKLRPDLLHLWSKEHVTRIAEALDAFDYQMALTLLNASP", "values": [{"measurement": "soluble fraction (log2)", "result": -2.43}]}
{"sequence": "HMIDVNLVQRGKTLHLRRRVPMRYSSVERREYVSISLKTDSEAEARRKAGAAWDQMIAAWEARLA", "values": [{"measurement": "soluble fraction (log2)", "result": -0.382}]}
{"sequence": "HMIDYTDTSAVKDSAAVAGRVREMINEGVPIADVNAFIRSASENGLISDDSARRLRYMNDSR", "values": [{"measurement": "soluble fraction (log2)", "result": -0.0436}]}
{"sequence": "HMIEDMTINIEERLSLNGDIKKSEYILQYIKPDFIRKVILSPELNKGEIYIYDSKKKVMYLPLFDQVSEEI", "values": [{"measurement": "soluble fraction (log2)", "result": -0.355}]}
{"sequence": "HMIEINNLEDLKLMKEFILKNGKYGFGVFVGGKYIGLSDIGSVNSFKDTLGLPVVSLGNDDFKRFTEAH", "values": [{"measurement": "soluble fraction (log2)", "result": -1.07}]}
{"sequence": "HMIEQEQAFLEQVLKKYSQEELVLTVGSRTLVKYSAGQLERLLEHYPHVRLASSPVNGEAGFLLSRG", "values": [{"measurement": "soluble fraction (log2)", "result": -0.0614}]}
{"sequence": "HMIEQIELEARVPDELGGQRLDQVAAQMFDDFSRSRLTGWIRDGSLTADGQQLRPRDIVYGGTLLQLKAEQ", "values": [{"measurement": "soluble fraction (log2)", "result": 0.132}]}
{"sequence": "HMIESFQNGLVEHDQFTRPNPWVTPNFSKIEVPSILLSGKHADIDLWKHQNSIENTKKNRPDLFKNYLKKN", "values": [{"measurement": "soluble fraction (log2)", "result": -0.149}]}
{"sequence": "HMIEYILDYLANRGVYAASQGEQQQMEDGIARYLQENGLEDGNTGAYYQKYVSNHLQQISASDLKAYFLN", "values": [{"measurement": "soluble fraction (log2)", "result": -0.946}]}
{"sequence": "HMIEYYDDEELDVFKGRQSDNYTNKEIEQFAEVLHTMRQDEVKGWNRSLILRSINLPDSLKDEVIMLI", "values": [{"measurement": "soluble fraction (log2)", "result": -0.568}]}
{"sequence": "HMIFDPTTLPEKQLLVYGIISSHPGLNAKQISEMLTLKKSSIETAIKGLRKKEIIEYEGTTRNGG", "values": [{"measurement": "soluble fraction (log2)", "result": -0.267}]}
{"sequence": "HMIFEEDILKEFRGSLIFITHDRRFLDNIATRIIELDRGKLLSFPGNFSAYKKAKNEQLANEAVENA", "values": [{"measurement": "soluble fraction (log2)", "result": -0.439}]}
{"sequence": "HMIFEETVFKDIAFGPKNMGLSEAEIKRRVYETAENIGLSQELMERSPFELSGGQKRRVAIAGVMAMEP", "values": [{"measurement": "soluble fraction (log2)", "result": 0.268}]}
{"sequence": "HMIFELDSDRASAGNTIGKLVSKWNNTEVASVQFVSGDDTSNKDNASIYLNTRSGGSGNLVRLRITK", "values": [{"measurement": "soluble fraction (log2)", "result": 0.429}]}
{"sequence": "HMIFRPALITDLDAVERHYTELLTREAETGRSSTNWSLGVYPTRQTATAAQAAGTLWVLEREGQVVASVI", "values": [{"measurement": "soluble fraction (log2)", "result": -0.0961}]}
{"sequence": "HMIFTPNGDRVNDVFEIEMGVKLEFQIIILNQQNQTVFKSADPDFKWDGTMLNGEPAPSGTYLYYFSAKD", "values": [{"measurement": "soluble fraction (log2)", "result": 0.207}]}
{"sequence": "HMIGERIKRARAAAGLSMQALGKQVGISANMVKKYEHDQSMPSSGVLLKLATALSVRTEYFFRPA", "values": [{"measurement": "soluble fraction (log2)", "result": -1.38}]}
{"sequence": "HMIGGASVFKQFLPLADKMLLTLIHSEFEGDTYFPVFSEKEWLLQESSSLLSATGYQLSFQTYIR", "values": [{"measurement": "soluble fraction (log2)", "result": 0.0107}]}
{"sequence": "HMIGGEDEILKVVLEVLEEKPEAIEQYKNGRTNIVDFLVGQVMKKTRGQANPATTREFMIREIEK", "values": [{"measurement": "soluble fraction (log2)", "result": -0.522}]}
{"sequence": "HMIGKDLLGYEVFSESGDLVGILKDVMWLPHSDVYVITNGGKELLIPVIPEVVKGINHEQGVIVISPM", "values": [{"measurement": "soluble fraction (log2)", "result": 0.394}]}
